Data on 5 substances can be found in US20070036806A1.

This assay has as its target human GLP-1 receptor (human) (UniProt P43220). Description: cell-based or functional assay.

Chain of human GLP-1 receptor (human) (P43220 24-463): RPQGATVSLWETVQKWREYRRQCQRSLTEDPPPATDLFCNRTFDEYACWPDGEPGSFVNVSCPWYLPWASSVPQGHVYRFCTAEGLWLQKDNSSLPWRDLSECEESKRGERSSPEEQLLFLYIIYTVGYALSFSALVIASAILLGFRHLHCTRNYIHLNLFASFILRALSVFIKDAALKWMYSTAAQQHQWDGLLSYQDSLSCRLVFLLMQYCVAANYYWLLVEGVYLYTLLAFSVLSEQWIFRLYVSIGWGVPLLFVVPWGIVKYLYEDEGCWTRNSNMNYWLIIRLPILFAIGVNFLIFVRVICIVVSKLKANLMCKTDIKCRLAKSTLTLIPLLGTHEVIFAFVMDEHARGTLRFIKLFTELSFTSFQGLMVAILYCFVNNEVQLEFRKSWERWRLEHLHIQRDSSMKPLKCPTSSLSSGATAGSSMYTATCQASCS
Chain of Gly^8-Glu^22-GLP-1(7-37)-2L-IgG4(S228P, F234A, L235A) (Fc fusion) (main): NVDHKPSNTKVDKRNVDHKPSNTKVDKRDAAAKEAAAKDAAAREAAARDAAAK
Chain of Gly^8-Glu^22-GLP-1(7-37)-1.5L-IgG4(S228P, F234A, L235A) (Fc fusion) (main): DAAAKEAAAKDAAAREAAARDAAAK

In turn, “Gly^8-Glu^22-GLP-1(7-37)-1.5L-IgG4(S228P, F234A, L235A) (Fc fusion)” yielded an Activity (from EC50, relative to Val^8-GLP-1(7-37)OH); CRE-BLAM (beta-lactamase) reporter in HEK-293 cells expressing the human GLP-1 receptor of 314% and an Activity (from EC50, relative to Val^8-GLP-1(7-37)OH, corrected for the 2-fold molarity of dimers); CRE-Luciferase reporter in HEK-293 cells stably expressing the human GLP-1 receptor of 595%.
For “Gly^8-Glu^22-GLP-1(7-37)-1L-IgG4(S228P, F234A, L235A) (Fc fusion)”, in that order: 468% and 1120%.
For “Gly^8-Glu^22-GLP-1(7-37)-2L-IgG4(S228P, F234A, L235A) (Fc fusion)”, in that order: 301% and 535%.
“Gly^8-Glu^22-Gly^36-GLP-1(7-37)-1L-IgG4(S228P, F234A, L235A) (Fc fusion)” returned an Activity (from EC50, relative to Val^8-GLP-1(7-37)OH, corrected for the 2-fold molarity of dimers); CRE-Luciferase reporter in HEK-293 cells stably expressing the human GLP-1 receptor of 417%.
As for “Gly^8-Glu^22-Gly^36-GLP-1(7-37)-2L-IgG4(S228P, F234A, L235A) (Fc fusion)”, the Activity (from EC50, relative to Val^8-GLP-1(7-37)OH); CRE-BLAM (beta-lactamase) reporter in HEK-293 cells expressing the human GLP-1 receptor was 441% and the Activity (from EC50, relative to Val^8-GLP-1(7-37)OH, corrected for the 2-fold molarity of dimers); CRE-Luciferase reporter in HEK-293 cells stably expressing the human GLP-1 receptor worked out at 398%.
